{"source": "patent US9796965B2", "about": "“Use of Taq polymerase mutant enzymes for nucleic acid amplification in the presence of PCR inhibitors” (DNA Polymerase Technology Inc., priority 2006, dated 2017)", "molecules": {"B1": {"name": "FLAC-22: SEQ ID NO: 2; full-length Taq with substitutions E626K, I707L, E708N (protein)", "chain": "MRGMLPLFEPKGRVLLVDGHHLAYRTFHALKGLTTSRGEPVQAVYGFAKSLLKALKEDGDAVIVVFDAKAPSFRHEAYGGYKAGRAPTPEDFPRQLALIKELVDLLGLARLEVPGYEADDVLASLAKKAEKEGYEVRILTADKDLYQLLSDRIHVLHPEGYLITPAWLWEKYGLRPDQWADYRALTGDESDNLPGVKGIGEKTARKLLEEWGSLEALLKNLDRLKPAIREKILAHMDDLKLSWDLAKVRTDLPLEVDFAKRREPDRERLRAFLERLEFGSLLHEFGLLESPKALEEAPWPPPEGAFVGFVLSRKEPMWADLLALAAARGGRVHRAPEPYKALRDLKEARGLLAKDLSVLALREGLGLPPGDDPMLLAYLLDPSNTTPEGVARRYGGEWTEEAGERAALSERLFANLWGRLEGEERLLWLYREVERPLSAVLAHMEATGVRLDVAYLRALSLEVAEEIARLEAEVFRLAGHPFNLNSRDQLERVLFDELGLPAIGKTEKTGKRSTSAAVLEALREAHPIVEKILQYRELTKLKSTYIDPLPDLIHPRTGRLHTRFNQTATATGRLSSSDPNLQNIPVRTPLGQRIRRAFIAEEGWLLVALDYSQIELRVLAHLSGDKNLIRVFQEGRDIHTETASWMFGVPREAVDPLMRRAAKTINFGVLYGMSAHRLSQELAIPYEEAQAFIERYFQSFPKVRAWLNKTLEEGRRRGYVETLFGRRRYVPDLEARVKSVREAAERMAFNMPVQGTAADLMKLAMVKLFPRLEEMGARMLLQVHDELVLEAPKERAEAVARLAKEVMEGVYPLAVPLEVEVGIGEDWLSAKE", "modifications": "FLAC-22", "notes": "full-length Taq with substitutions E626K, I707L, E708N"}, "B2": {"name": "KlenTaq-10: SEQ ID NO: 1; N-terminal deletion at 278 of full-length wild type Taq with substitutions E626K, I707L, E708K (protein)", "chain": "MGLLHEFGLLESPKALEEAPWPPPEGAFVGFVLSRKEPMWADLLALAAARGGRVHRAPEPYKALRDLKEARGLLAKDLSVLALREGLGLPPGDDPMLLAYLLDPSNTTPEGVARRYGGEWTEEAGERAALSERLFANLWGRLEGEERLLWLYREVERPLSAVLAHMEATGVRLDVAYLRALSLEVAEEIARLEAEVFRLAGHPFNLNSRDQLERVLFDELGLPAIGKTEKTGKRSTSAAVLEALREAHPIVEKILQYRELTKLKSTYIDPLPDLIHPRTGRLHTRFNQTATATGRLSSSDPNLQNIPVRTPLGQRIRRAFIAEEGWLLVALDYSQIELRVLAHLSGDKNLIRVFQEGRDIHTETASWMFGVPREAVDPLMRRAAKTINFGVLYGMSAHRLSQELAIPYEEAQAFIERYFQSFPKVRAWLKKTLEEGRRRGYVETLFGRRRYVPDLEARVKSVREAAERMAFNMPVQGTAADLMKLAMVKLFPRLEEMGARMLLQVHDELVLEAPKERAEAVARLAKEVMEGVYPLAVPLEVEVGIGEDWLSAKE", "modifications": "Klentaq-10", "notes": "N-terminal deletion at 278 of full-length wild type Taq with substitutions E626K, I707L, E708K"}, "B3": {"name": "wild type KlenTaq: SEQ ID NO: 3; N-terminal deletion at 278 of full-length Taq, Met/Gly replacing amino acids 279 and 280 (protein)", "chain": "B2 chain with K348E, L429I, K430E", "modifications": "Klentaq-1"}}, "key": {"[1]": {"assay": "Functional analysis of codon 708 saturated mutagenesis variants for resistance to PCR inhibitors", "assay_type": "biochemical", "settings": "for functionality of the 708 substitution: KlenTaq or full-length Taq background", "protocol": "Single amino acid changes of the wild type Taq Glu708 were implicated in both selected qualities of the mutants, blood and soil-resistance.\nSaturated mutagenesis was performed at codon 708 of Taq to test functionally the full spectrum of all possible substitutions at this critical position."}, "[2]": {"tested_on": "0.32 kbp 16S microbial target", "assay": "Real-time PCR of 16S microbial target double challenged with 5% blood and SYBR green dilutions", "settings": "for amplification under double challenge: SYBR green dilutions from 32×, 40 cycles"}, "[3]": {"tested_on": "630 bp CCR5 gene target", "assay": "Real-time PCR of human CCR5 target mixed with crude soil extract and SYBR titration", "assay_type": "biochemical", "settings": "4 ng human DNA mixed with crude soil extract, SYBR titrated", "protocol": "A 630 bp CCR5 gene target was amplified from 4 ng of human DNA mixed with crude soil extract and various amounts of SYBR. Klentaq-10 mutant enzyme was compared to it's wild type precursor, and FLAC-22 (SEQ ID NO: 2) was compared to the wild type Fast Start Taq polymerase (Roche). SYBR Green fluorescent dye was titrated to optimize the fluorescent signal for real time detection. PCR was performed in real-time cycler Opticon2, and the amplified products were analyzed both by gel electrophoresis (bottom panels) and SYBR Green dye melting curve profile (top panels)."}, "[4]": {"tested_on": "0.6 kbp Bacillus cereus target DNA", "assay": "Real-time PCR of 0.6 kbp Bacillus cereus target challenged with two-fold SYBR green dilutions", "settings": "for SYBR concentration above which amplification failed / SYBR concentration in the presence of which the 0.6 kbp Bacillus cereus target DNA was amplified: 2.5 units enzyme per 50 ul, 20 pg genomic DNA, 40 cycles, no blood"}, "[5]": {"tested_on": "0.25 kbp Lambda specific target", "assay": "Real-time PCR of Lambda target challenged with two-fold SYBR green dilutions", "settings": "for SYBR concentration in the presence of which the 0.25 kbp lambda target was amplified: purified DNA template, 2.5 units per 50 ul, 35 cycles"}, "[6]": {"tested_on": "244 bp influenza virus RNA target", "assay_type": "biochemical", "settings": "purified RNA and mimic crude samples with 8% plasma, serum, whole blood; PEC-Plus enhancer"}, "[7]": {"tested_on": "244 bp influenza virus target", "assay_type": "biochemical", "settings": "5% human serum, 200 μM TaqMan probe, PEC-Plus enhancer"}, "[8]": {"tested_on": "anthrax genome target (1.3 kb Bacillus anthracis)", "assay_type": "biochemical", "settings": "5% human blood, 32× SYBR Green"}, "[9]": {"tested_on": "0.6 kbp Bacillus cereus target DNA", "assay": "Real-time PCR of Bacillus cereus target double challenged with 5% and 10% blood and SYBR green dilutions"}, "[10]": {"tested_on": "endogenous 600 bp target of Bacillus Cereus", "assay": "Real-time PCR of endogenous Bacillus Cereus target from crude soil extract", "assay_type": "biochemical", "settings": "soil extract 16%, 8%, 4%, 2%"}}, "note": "Changes are numbered by the printed parent chain. Names may count otherwise. “Also recorded” adds a separate entry of the source.", "data": [{"molecule": "FLAC-3: full-length Taq mutant with Q substitution at 708", "values": [{"measurement": "functionality of the 708 substitution", "setting": "[1]", "result": "only functional in Taq"}]}, {"molecule": "FLAC-4: full-length Taq mutant with I substitution at 708", "values": [{"measurement": "functionality of the 708 substitution", "setting": "[1]", "result": "only functional in Taq"}]}, {"molecule": "FLAC-10: full-length Taq mutant with K substitution at 708, corresponding to Klentaq10", "values": [{"measurement": "functionality of the 708 substitution", "setting": "[1]", "result": "efficient"}]}, {"molecule": "FLAC-12: full-length Taq mutant with L substitution at 708, corresponding to Klentaq 12", "values": [{"measurement": "functionality of the 708 substitution", "setting": "[1]", "result": "efficient"}]}, {"molecule": "Fast Start Taq: commercial wild type Taq enzyme (Roche)", "values": [{"measurement": "post PCR melting curve analysis", "setting": "[2]; 5% blood", "result": "did do not show the correct melting temperature of the product at all"}, {"measurement": "amplification under double challenge", "setting": "[2]; 5% blood", "result": "able to amplify only the positive control"}, {"measurement": "melting curve profile in crude soil samples", "setting": "[3]", "result": "showed a melting curve at very low SYBR concentration"}, {"measurement": "SYBR concentration above which amplification failed", "setting": "[4]", "result": "higher than 0.2 ×"}]}, {"molecule": "B1", "values": [{"measurement": "resistance to PCR inhibitors among all 708 mutant variants", "setting": "[1]", "result": "superior in all aspects of inhibitors resistance to PCR inhibitors"}, {"measurement": "functionality of the 708 substitution", "setting": "[1]", "result": "only functional in Taq"}, {"measurement": "amplification under double challenge", "setting": "[2]; 5% blood", "result": "capable of amplifying with all SYBR concentrations"}, {"measurement": "SYBR green necessary for real-time PCR detection", "setting": "[2]; 5% blood, melting curve analysis", "result": "at least 4 ×"}, {"measurement": "resistance toward SYBR green", "setting": "[2]; with 5% blood in the reaction", "result": "at least 32 ×"}, {"measurement": "SYBR concentration in the presence of which the 0.25 kbp lambda target was amplified", "setting": "[5]", "result": 2, "unit": "×"}, {"measurement": "resistance toward SYBR green", "setting": "[5]; without blood in the reaction (comparison value given in Example 4)", "result": 2, "unit": "×"}, {"measurement": "RT-PCR amplification of influenza virus gene", "setting": "[6]", "result": "work in RT-PCR"}, {"measurement": "real-time RT-PCR TaqMan detection of influenza virus gene", "setting": "[7]", "result": "work in RT-PCR TaqMan assays"}, {"measurement": "amplification/detection of Bacillus anthracis target in blood", "setting": "[8]", "result": "successful real-time PCR detection"}, {"measurement": "SYBR concentration in the presence of which the 0.6 kbp Bacillus cereus target DNA was amplified", "setting": "[4]", "result": 1.6, "unit": "×"}]}, {"molecule": "B2", "values": [{"measurement": "resistance to PCR inhibitors among all 708 mutant variants", "setting": "[1]", "result": "superior in all aspects of inhibitors resistance to PCR inhibitors"}, {"measurement": "functionality of the 708 substitution", "setting": "[1]", "result": "efficient"}, {"measurement": "SYBR concentration allowing amplification compared to wild type KlenTaq", "setting": "[9]; 5% and 10% blood, SYBR dilutions from 64×", "result": "at least two times higher concentration of SYBR"}, {"measurement": "resistance toward SYBR green", "setting": "[9]; with blood (5%, 10%) in the reaction", "result": "at least 64 ×"}, {"measurement": "SYBR concentration in the presence of which the 0.25 kbp lambda target was amplified", "setting": "[5]", "result": "at least 4 ×"}, {"measurement": "RT-PCR amplification of influenza virus gene", "setting": "[6]", "result": "work in RT-PCR"}, {"measurement": "real-time RT-PCR TaqMan detection of influenza virus gene", "setting": "[7]", "result": "work in RT-PCR TaqMan assays"}, {"measurement": "amplification/detection of Bacillus anthracis target in blood", "setting": "[8]", "result": "specifically amplified the target in 5% blood"}, {"measurement": "amplification in the presence of crude soil extract", "setting": "[10]", "result": "outperforming the two commercial Tags; also recorded: amplified successfully"}, {"measurement": "SYBR concentration in the presence of which the 0.6 kbp Bacillus cereus target DNA was amplified", "setting": "[4]", "result": 4, "unit": "×"}, {"measurement": "resistance toward SYBR green", "setting": "[4]; no blood in the reaction (comparison value given in Example 3)", "result": 4, "unit": "×"}]}, {"molecule": "B3", "values": [{"measurement": "melting curve profile in crude soil samples", "setting": "[3]", "result": "showed a melting curve at very low SYBR concentration"}, {"measurement": "SYBR concentration above which amplification failed", "setting": "[4]", "result": "higher than 1 ×"}]}]}
